Results reported in the nanobody polyreactivity screen of Harvey et al. (2022).

Assay: yeast display, Sf9 membrane polyspecificity reagent, FACS + sequencing; frameworks hold sequencing errors
In short: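 Using colony PCR, genes from sorted yeast display clones were amplified, then sequenced on MiSeq at 2 × 250 and filtered by CDR length. The clones had been stained with 10% biotinylated, detergent-solubilized Sf9 membrane reagent for 1 hour at 4 °C and sorted by FACS into low and high (top ~1%) gates on anti-HA and streptavidin fluorescence. Polyreactivity labels come from the gate of origin.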

**Q.** With “QVQLVESGGGLVQAGGSLRLSCAASGSTFLPYVMGWYRQATGKERELVAAISRSGGRTYYADSVKGRFTISRDKAKNTVYLQMNRLKPEDTAVYYCNAVQRFYADYQPFAYWGQGTQLTVSS” as the sequence, how does the “polyreactivity (PSR sort gate)” value read?
**A.** high polyreactivity

**Q.** With “QVQLVESGGGLVQAGGSLRLSCAASGSTFYRNAMGWYRQAPGKERELVAGISRRGGSTYYADSVKGRFTISRDNAKNTVYLQMNSLKPEDTAVYYCNADYPGIPHNDYWGQGTQVTVSS” as the sequence, how does the “polyreactivity (PSR sort gate)” value read?
**A.** low polyreactivity

**Q.** Which “polyreactivity (PSR sort gate)” value does the source give for “QVQLVESGGGLVQAGGSLRLSCGASGFTFDVYAMGWYRQAPGKERELVARIRWSGGSTSYADSVKGRFTISRDNAKNTVYVQMNSLKPEDTAVYYCNTRRIYVNSGRGDYWGQGTKVTVSS” here?
**A.** low polyreactivity

**Q.** For “QVQLQESGGGLVQAGGSQRLSCAASGYIIYFQYMGWYRQAPGKEREFVAAISDGANTNYADSVKGRFTISRDNAKNTEYLQMNSLKPEDTAVYYCAVYADENYYYIYWGQGTQVTVSS”, which “polyreactivity (PSR sort gate)” value is on record?
**A.** low polyreactivity

**Q.** For “QVQLVESCGGLVQAGGSLRLSCAASGYIFLYNTMGWYRQAPWKERELVAAISFRAGSTYYADSVKGRFTISRDNAMNTVYLQMNSLKPEDTAVYYCAKRQRYYLYGHDYWGQGTQVTVSS”, which “polyreactivity (PSR sort gate)” value is on record?
**A.** low polyreactivity

**Q.** With “QVQLVESGGGLVQAGGSLRLSCAASGSTFVGYAMGWYRHAPGKERELVAAISSSGGRTNYADSVKGRFTISRDNAKNTVYLQMNSLKPEDTAVYYCAAKAYRSPVYYWGQGTQVTVSS” as the sequence, how does the “polyreactivity (PSR sort gate)” value read?
**A.** high polyreactivity

**Q.** With “QVQLVESGGGLVQAGGSLRLSCAASGSIFTNAMGWYRQAPGKERELVAAISSSGGSTYYADSVKGRFTISRDNAKNTVYLQMNSLKPDDTAVYYCAADHYGCRDFWGQGSQVTVSS” as the sequence, how does the “polyreactivity (PSR sort gate)” value read?
**A.** low polyreactivity

**Q.** For “QVQLVESGGGLVQAGGSLRLTSADTGFNFGSYAMGWSRQAHGKEREFVAAISSNGGNTYYADSVKGRFTISRDNAKNTVYLEINSLKPEDTAVSYCAARYPSGTRKWYGYWGQGTQVTVSS”, which “polyreactivity (PSR sort gate)” value is on record?
**A.** high polyreactivity

**Q.** For “QVQLVESGGGLVQAGGSLRLSCAASGIIFFRNAMGWYRQAPGNERELVATITSGVSTNYADSVKGRFTISRDNAKNTVYLQKNSLKPEDTAVYYCATEGFPFYDFDYWGQGTQVTVSS”, which “polyreactivity (PSR sort gate)” value is on record?
**A.** high polyreactivity

**Q.** With “QVQLVESGGGLVQAGGSLRLSCAASGRIFSYYTMGWYRQAPGKERELVAAITSGDSTNYADSVKGRFTISRDNAKNTVYLQMNSLKPEDTAVYYCNARYSWWRSRVGSSHGPDGYWGQGTQVTVSS” as the sequence, how does the “polyreactivity (PSR sort gate)” value read?
**A.** high polyreactivity

**Q.** For “QEQLQESGGGLVLAGGSLSLSCPESGYISWSFTMGWYRKAPGKEREFVAGITYGGITYYADSVKGRFTIRRDNGKNTVYLQLNSLKPEDTAVFYCAAPQTYPYVYVYWGQGTQVTVCS”, which “polyreactivity (PSR sort gate)” value is on record?
**A.** high polyreactivity

**Q.** Which “polyreactivity (PSR sort gate)” value does the source give for “QVQLVESGGGLVQAGGSLRLICAASGRTFNINGMGWYRQAPGKERELVAAITTSGGSTYYADSVKGRFTISRDNAKNTVYLQMNSLKPEDTAVYYCAADVFSRKYLYGDYDYWGQGTQVTVSS” here?
**A.** high polyreactivity

**Q.** With “QVQLVESGGGLVQAGGSLRLSCAASGFTFRYYAMGWYRQAPGKERELVAAISRSGGSTYYADSVKGRFTISRDNAKNTVYLQMNSLKPEDTAVYYCAARSHGWTPHGYDYWGQGTQVTVSS” as the sequence, how does the “polyreactivity (PSR sort gate)” value read?
**A.** high polyreactivity

**Q.** Which “polyreactivity (PSR sort gate)” value does the source give for “QVQLVESGGGLVQAGGSLRLSCAASGRTFALYAMGWYRQAPGKERELVAAITSGGSTNYADSVKGRFTISRDNAKNTVYVQMNSLKPEDTAVYYCNADDSSKDVIGLDYWGQGTQVTVSS” here?
**A.** low polyreactivity

**Q.** With “QVQLVESGGGLVQAGGSLRLICDASGSIFGDYVMGWYSPAPGKERELVAAITSATSTYYADSVKGRFTISRDNAKNTVYLQMNSLKPEDTAVYYCKADATYPLWPNIWYDYDYWGQGTQVTVSS” as the sequence, how does the “polyreactivity (PSR sort gate)” value read?
**A.** low polyreactivity

**Q.** Which “polyreactivity (PSR sort gate)” value does the source give for “QVQLVESGGGLVQAGGSLRLSCASSGSIIVVYGMGWYRQAPGKERELVAAISGGITNYADSVKGRFTISRDNAMNTVYLQMNILIPEDTAVYYCATVDGAYQYTYDYWGQGTQVTVSS” here?
**A.** low polyreactivity

**Q.** With “QVQLVESGVGLVQAGGSLRLSCAASGRIFNRYAMGWYRQAPGKERELVAAITGSGGRTYYADSVKGRFTISRDNAKNTVYVVRISMKPEDTAVYFCAKYYPEYPAYGRGDYWGQGTQVTVSS” as the sequence, how does the “polyreactivity (PSR sort gate)” value read?
**A.** low polyreactivity

**Q.** Which “polyreactivity (PSR sort gate)” value does the source give for “QVQLVESGGGIVQAGGSLRLSCAASGRTFYGNVMGWYRQAPGKERELVATISFSAGSTYYADSVKGRFTISRDNAKNTVYLQMNSLKPEDTAVYYCNADHTDYASGGGNYWGQGTQVTVSS” here?
**A.** low polyreactivity

**Q.** With “QVQLVESGGGLVQAGGSLRLTCAASGSITSINAMGWYRQAPGKERELVAAINWSSGSTYYADSVKGRFTISRDYAKNTVYLQKISLKPEDTAVYYCAVDRYFFAGYYGYEYWGQGTQGTVSS” as the sequence, how does the “polyreactivity (PSR sort gate)” value read?
**A.** high polyreactivity

**Q.** With “QVQLVESGGGLVQAGGSLRLICAASGFIFKGYAMGWNRQAPGKERELVAAISSSGTSTYYADSVKGRFTISRDNAKNTVYLQMNSLKPEDTAVYYCAADLASYAYRYDFWGQGTQVTVSS” as the sequence, how does the “polyreactivity (PSR sort gate)” value read?
**A.** high polyreactivity

**Q.** Which “polyreactivity (PSR sort gate)” value does the source give for “QVQLVESGGGLVQAGGSLRLSCAASGSILRLYVMGWYIQAPGKDRELVADISDRGGSTYYADSVKGRFTISRDNAKNTVYLQMNSLKPEDTAVYYCAAEWGQRGGGGYYYWGQGTQVTVSS” here?
**A.** low polyreactivity

**Q.** Which “polyreactivity (PSR sort gate)” value does the source give for “QVQLVESGGGLVQAGGSLRLSCAASGIIIRYYGMGWYRQAPGKERELVARIRWTGGSTYYADSVKGRFTISRDNAKNTVYLQMNSLKPEDTAVYYCAADIWQYSRIANYHPYDYWGQGTQVTVSS” here?
**A.** low polyreactivity

**Q.** With “QVQLVESGGGLVQAGCSLRLSCAATGFIFKRNAMGWYRQAPGKERELVAAITKSGVNSYYADSVKGRFTISRDNAKNTVYLLMNSLKPEDTAVYYCAARGNRKQAWYKYNYCGQGTQVTVSS” as the sequence, how does the “polyreactivity (PSR sort gate)” value read?
**A.** high polyreactivity

**Q.** Which “polyreactivity (PSR sort gate)” value does the source give for “QVQLVESGGGLVQAGGSLRLSCAASGSTYANAMGWYRQAPGKERELVAAITDNGGRTYYADSVKGRFTISRDNAKNTFYLQMNSLKPEDTAVYYCAARSSVWGQGTQVTVSS” here?
**A.** low polyreactivity

**Q.** With “QVQLVESGGGLVQAGGSLRLSCAASGLTFSRNGMGWYRQAAGKERELVAAISTSGDSTDYADSVKGRFTISRDYAKNTVYLQMNSLKPEDTAVYYCNRDFSLVVHYNFDYWGQGTQVTVSS” as the sequence, how does the “polyreactivity (PSR sort gate)” value read?
**A.** low polyreactivity

**Q.** With “QVQLVESGRGLVQAGGSLRLSCAASGRIFSVNTMGWYRQAPGKERELVAGITGGGSTNYADSVKGRFTISRDNAKNTVYLQMNSLKPEDTAVYYCAAGWRSGFDYWGQGTQVTVSS” as the sequence, how does the “polyreactivity (PSR sort gate)” value read?
**A.** high polyreactivity

**Q.** For “QVQLVESGGGIVQAGGSLRLSCAGSGIIFWYYAMGWYRQAPGKERELVAAISQSGGRTYYADSVKGRFTISRDNAKNTVYLQMNSLKPEDTAVYYCAAGLVYRWSTTPRRLYYYWGQGTQVTVSS”, which “polyreactivity (PSR sort gate)” value is on record?
**A.** high polyreactivity

**Q.** With “QVQLVESGGGLVQAGGSLRLSCAAYSYVMGGYRQAPGKERELVAAISQSGGSTYYADSVKGRFTISRDNAKNTVYLQMNTLKPEDTAVYYCAASYQVRYDYWGQGTQVTVSS” as the sequence, how does the “polyreactivity (PSR sort gate)” value read?
**A.** high polyreactivity

**Q.** For “QVQLVESGGGLVQAGGSLRLSCAASGSTSRYAMGWYRQAPGKERELVAAITRSGGTTYYADSVKGRYTISRDNAKNTVYLQMNSLKPEDTAVYYCATSDRQVKYDYWGQGTQVTVSS”, which “polyreactivity (PSR sort gate)” value is on record?
**A.** low polyreactivity

**Q.** Which “polyreactivity (PSR sort gate)” value does the source give for “QVQLVESGGGLVQAGGSLRLSCAASGRILDGYAMGWYRQAPGKERELVAAISSRGGRTYYADSVKGRFTISRDNAKNTVYLQMNSLKPEDTAVYYCAADFSKSRRPIRFYYWGQGTQVTVSS” here?
**A.** high polyreactivity

**Q.** For “QVQLVESGGGLVQAGGSLRLSCAASGITFAYYVMGWYRQAPGKERELVAAITRSGDITSYADSVKGRFTISRDNAKNTVYLQMNSMKPEDTAVYYCNARRGYQSRRYNYWGQGTQVSVSS”, which “polyreactivity (PSR sort gate)” value is on record?
**A.** high polyreactivity

**Q.** Which “polyreactivity (PSR sort gate)” value does the source give for “QVQLVESGGGLVQAGGSLRLSCAASGSIFNHYAMGWYRQAPGKERELVATITDGGSTYYADSVKGRFTISRDNAKNTVYLQMNSLKPEDTAVYYCATDRRRFWVIYYYWGQGTQVTVSS” here?
**A.** low polyreactivity

**Q.** With “QVQLVESGGGLVQAGGSLRLSCAASGIIFRNNAMGWYRQAPGKERELVAAISRRGGSTSYADSVKGRFTISRDNAKNTVYLQMNSLKPEDTAVYYCNKAGPYYGYPHYLFYYWGQGTQVTVSS” as the sequence, how does the “polyreactivity (PSR sort gate)” value read?
**A.** high polyreactivity

**Q.** With “QVQLVESGGGLVQAGGSLRLSCAASGRIFYYNTMGWYRQAPGKERELVAAITTNGGSTYYADSVKGRFTISRDNAKNTVYLQMNSPKPEDTAVYYCNRDRYPYYYAYNYWGQGTQVTVSS” as the sequence, how does the “polyreactivity (PSR sort gate)” value read?
**A.** low polyreactivity

**Q.** Which “polyreactivity (PSR sort gate)” value does the source give for “QVQLVESGVGLVQAGGSLLLSCSSSGRIFDLNAMGWYRQAPGKERELVAVIDRDGSTYYADSVKGRFTISRDNAKNTVYLQMNSLKPEDTAVYYCNKYWYSRHVRYWAYYAEQRYDYWGQGTQVTVSS” here?
**A.** low polyreactivity

**Q.** With “QVQLVESGGGLVQAGGSLRLSCAASGTIFIVNAMGWYRQAPGKERELVAAITQGDGSTYYADSVKGRFTISRDNAKNTVYLQMNSLKPEDTAVYYCAVGDLVAYTWQEYNYWGQGTQVNVSS” as the sequence, how does the “polyreactivity (PSR sort gate)” value read?
**A.** low polyreactivity

**Q.** Which “polyreactivity (PSR sort gate)” value does the source give for “QVQLVESGGGLVQAGGSLRLSCPASGYTFYVYAMGWYRQAPGKERELVAAIGGGSTNYADSVKGRFTISRDNAKNTVYLQMNSLKPEDTAVYYCAARRYYKFYYWGQGTQVTVSS” here?
**A.** high polyreactivity

**Q.** For “QVQLVESGGGLVQAGGSLRLSCDASGSIFPVYAMGWYRQAPGKERELVAAISSRGGRTYYADSVKGRFTISRDNAKNTVYLQMNSLKPEDNAVYYCATDYATYYRLPSQYDYWGQGTQVTVSS”, which “polyreactivity (PSR sort gate)” value is on record?
**A.** low polyreactivity

**Q.** With “QVQLVESGGCLVQAGGSLRLSCAASGRIFFYYTLGWYRQAPGKERELVAAINSTGSTNYADSVKGRFTISRDNAKNTVYLQMKSLKPEDTAVYYCNAGTRYIFLYPPFLGAAFDYWGQGTQVTVSS” as the sequence, how does the “polyreactivity (PSR sort gate)” value read?
**A.** low polyreactivity

**Q.** Which “polyreactivity (PSR sort gate)” value does the source give for “QVQLVESGGGLVQAGGSLRLSCAASGFIFVRYAMGWYRQAPGKERELVAAISWRGGSTYFADSVKGRFTISRDNAKNTVYLQMNSLKPEDTAVYYCAAVTWVHRYSRFNPFVAFDYWGQGTQVTVSS” here?
**A.** high polyreactivity

**Q.** Which “polyreactivity (PSR sort gate)” value does the source give for “QVQHVESGGGLVQAGGSLRLSCAASGSIFAGYANGWYRKAPGKERELVARITDRGGSTDYADSVKGRYTISRDNAKNTVYLQMNSLKPEDTAVYSCAKRGDRYEKRPRDYWGQGTQVTVSS” here?
**A.** low polyreactivity
